Experimental findings from patent WO2004046187A2 (dated 2004) are described below.

Experiment [1] concerns the target T1, Recombinant oncogenic HRAS (G12V; residues 1 - 166) loaded with GppNp (human, UniProt P01112 1-166).
T1 construct: range 1-166; this form was used as antigen throughout the in vitro assays; also called HRASG12V-GppNp; RASG12V-GppNp
The experiment can be described thus: SPR, BIAcore 2000; HRASG12V-GppNp immobilised on CM5 chip (about 1500 RU), purified scFv injected.

Experiment [2] addresses T2, LexA DBD (made from the empty pBTM116 vector) (UniProt P0A7C2 1-202).
T2 construct: domain: LexA DBD; Control bait in yeast
T2 sequence: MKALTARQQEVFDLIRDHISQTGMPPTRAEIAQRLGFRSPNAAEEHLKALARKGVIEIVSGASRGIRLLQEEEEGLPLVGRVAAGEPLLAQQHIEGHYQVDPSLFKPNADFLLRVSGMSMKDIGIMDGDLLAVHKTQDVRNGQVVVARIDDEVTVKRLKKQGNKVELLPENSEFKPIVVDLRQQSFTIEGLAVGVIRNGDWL
Description: yeast two-hybrid (His-independent growth, β-gal activation).

For experiment [3], the target named is T3, non-relevant antigen (β-galactosidase) bait in yeast (UniProt P00722 2-1024 = β-galactosidase).
T3 construct: Used as non-relevant bait in the yeast two-hybrid test
The experiment is described as above.

T3 sequence (P00722 2-1024 limits assumed): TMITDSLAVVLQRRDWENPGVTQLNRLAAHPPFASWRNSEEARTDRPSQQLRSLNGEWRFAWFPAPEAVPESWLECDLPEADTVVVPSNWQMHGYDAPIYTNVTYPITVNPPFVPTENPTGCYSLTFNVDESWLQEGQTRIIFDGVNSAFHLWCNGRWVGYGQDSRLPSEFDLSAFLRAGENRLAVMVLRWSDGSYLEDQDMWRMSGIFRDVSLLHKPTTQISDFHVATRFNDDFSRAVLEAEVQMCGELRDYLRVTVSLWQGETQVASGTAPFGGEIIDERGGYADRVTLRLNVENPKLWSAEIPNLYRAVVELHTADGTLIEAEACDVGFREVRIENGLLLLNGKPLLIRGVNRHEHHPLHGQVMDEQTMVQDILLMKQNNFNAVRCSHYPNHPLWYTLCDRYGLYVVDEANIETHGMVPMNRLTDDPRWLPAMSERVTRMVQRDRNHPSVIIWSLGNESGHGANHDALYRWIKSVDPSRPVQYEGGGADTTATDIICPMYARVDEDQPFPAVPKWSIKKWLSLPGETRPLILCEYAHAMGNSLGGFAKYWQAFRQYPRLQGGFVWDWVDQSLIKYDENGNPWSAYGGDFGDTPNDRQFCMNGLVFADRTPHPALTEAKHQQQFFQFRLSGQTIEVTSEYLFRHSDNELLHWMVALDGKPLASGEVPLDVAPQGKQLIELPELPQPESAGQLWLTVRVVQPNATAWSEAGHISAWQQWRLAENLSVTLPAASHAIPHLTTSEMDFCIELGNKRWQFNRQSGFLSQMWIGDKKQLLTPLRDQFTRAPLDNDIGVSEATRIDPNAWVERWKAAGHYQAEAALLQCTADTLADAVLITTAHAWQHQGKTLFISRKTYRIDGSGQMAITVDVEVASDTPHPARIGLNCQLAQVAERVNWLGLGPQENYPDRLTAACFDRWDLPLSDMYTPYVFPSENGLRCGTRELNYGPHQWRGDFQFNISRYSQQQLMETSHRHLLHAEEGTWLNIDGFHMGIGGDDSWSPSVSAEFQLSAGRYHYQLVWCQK

B1: anti-RAS scFvI21, purified from bacterial periplasm (pHEN2) (scFv)
scFv: EVQLLESGGGLVQPGGSLRLSCAASGFTFSSYAMSWVRQAPGKGLEWVSTISYGGSNTNYADSVKARFTISRDNSKNTLYLQMNSLRAEDTAVYYCAKGNNAFDYWGQGTLVTVSSGGGGSGGGGSGGGGSTDIQMTQSPSSLSASVGDRVTITCRASQSISSYLNWYQQKPGKAPKLLIYNASALQSGVPSRFSGSGSGTDFTLTISSLQPEDFATYYCQQYTSTPRTFGQGTKVEIKR
notes: also called 121 (as the text prints it); ICAb 121; not shown: C-terminal His6-tag and myc-tag from pHEN2
As to B1, the Kd in experiment [1] is 2160 nM.

B2: scFvI21-VP16 activation domain fusion (scFv)
scFv: B1 scFv
notes: In the mammalian vector the scFv stands on the N-terminal side of VP16; the same id is used for the yeast pVP16 prey; also called 121; ICAb 121
As to B2, the binding result in experiment [2] and in experiment [3] was “no binding” throughout.
